Experimental data from the supplement of paper PMC10065799, “High-throughput profiling of sequence recognition by tyrosine kinases and SH2 domains using bacterial peptide display” (eLife, 2023).

Experiments:
[1] = system: AncSZ; test: phosphorylation enrichment, bacterial display (enrichment ratio); higher = better substrate or ligand; peptides without Tyr show the background
[2] = molecular target: EPHB1 (UniProt P54762); test: as above
[3] = molecular target: EPHB2 (UniProt P29323); test: as above
[4] = molecular target: FGFR1 (UniProt P11362); test: as above
[5] = molecular target: FGFR3 (UniProt P22607); test: as above
[6] = system: Fer (mouse); test: as above
[7] = molecular target: Fes (UniProt P07332); test: as above
[8] = molecular target: Fyn (UniProt P06241); test: as above
[9] = molecular target: Hck (UniProt P08631); test: as above
[10] = molecular target: Jak2 (UniProt O60674); test: as above
[11] = molecular target: MERTK (UniProt Q12866); test: as above
[12] = system: c-Abl (mouse); test: as above
[13] = system: c-Src; test: as above
[14] = molecular target: Grb2 SH2 (UniProt P62993); test: SH2 binding enrichment of the phosphorylated peptide, bacterial display (enrichment ratio); higher = better substrate or ligand; peptides without Tyr show the background
[15] = molecular target: SHP2-C SH2; test: as above
[16] = molecular target: c-Src SH2; test: as above
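Throughout, for SH2 binding enrichment of the phosphorylated peptide, bacterial display: peptide library displayed on the E. coli surface as eCPX fusions, selected cells deep-sequenced, score is each peptide's frequency after selection divided by its frequency in the input.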
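Throughout, for phosphorylation enrichment, bacterial display: 11-residue human phosphosite peptides and single-mutation variants displayed on the E. coli surface, counted by deep sequencing, each peptide's frequency after selection divided by its frequency in the unselected input library; frequency after pTyr selection over input frequency; kinase dosed for 20-30% of maximal phosphorylation in three min.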

Hck, sequence (P08631 whole entry, looked up): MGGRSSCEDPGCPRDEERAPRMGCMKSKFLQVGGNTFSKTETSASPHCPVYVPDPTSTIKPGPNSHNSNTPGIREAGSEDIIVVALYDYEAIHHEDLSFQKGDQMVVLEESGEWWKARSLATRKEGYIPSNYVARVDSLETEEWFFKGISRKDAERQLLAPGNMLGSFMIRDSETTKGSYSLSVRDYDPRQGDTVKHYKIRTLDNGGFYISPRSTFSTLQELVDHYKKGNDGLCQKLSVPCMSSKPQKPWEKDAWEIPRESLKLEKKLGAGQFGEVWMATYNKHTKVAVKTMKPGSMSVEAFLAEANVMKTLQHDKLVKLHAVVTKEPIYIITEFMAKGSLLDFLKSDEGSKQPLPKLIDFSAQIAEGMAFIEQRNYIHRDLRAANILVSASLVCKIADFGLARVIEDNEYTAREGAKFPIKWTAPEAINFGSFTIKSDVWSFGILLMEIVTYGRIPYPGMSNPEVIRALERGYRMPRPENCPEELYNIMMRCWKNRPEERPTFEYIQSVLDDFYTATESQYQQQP
EPHB2, sequence (P29323 whole entry, looked up): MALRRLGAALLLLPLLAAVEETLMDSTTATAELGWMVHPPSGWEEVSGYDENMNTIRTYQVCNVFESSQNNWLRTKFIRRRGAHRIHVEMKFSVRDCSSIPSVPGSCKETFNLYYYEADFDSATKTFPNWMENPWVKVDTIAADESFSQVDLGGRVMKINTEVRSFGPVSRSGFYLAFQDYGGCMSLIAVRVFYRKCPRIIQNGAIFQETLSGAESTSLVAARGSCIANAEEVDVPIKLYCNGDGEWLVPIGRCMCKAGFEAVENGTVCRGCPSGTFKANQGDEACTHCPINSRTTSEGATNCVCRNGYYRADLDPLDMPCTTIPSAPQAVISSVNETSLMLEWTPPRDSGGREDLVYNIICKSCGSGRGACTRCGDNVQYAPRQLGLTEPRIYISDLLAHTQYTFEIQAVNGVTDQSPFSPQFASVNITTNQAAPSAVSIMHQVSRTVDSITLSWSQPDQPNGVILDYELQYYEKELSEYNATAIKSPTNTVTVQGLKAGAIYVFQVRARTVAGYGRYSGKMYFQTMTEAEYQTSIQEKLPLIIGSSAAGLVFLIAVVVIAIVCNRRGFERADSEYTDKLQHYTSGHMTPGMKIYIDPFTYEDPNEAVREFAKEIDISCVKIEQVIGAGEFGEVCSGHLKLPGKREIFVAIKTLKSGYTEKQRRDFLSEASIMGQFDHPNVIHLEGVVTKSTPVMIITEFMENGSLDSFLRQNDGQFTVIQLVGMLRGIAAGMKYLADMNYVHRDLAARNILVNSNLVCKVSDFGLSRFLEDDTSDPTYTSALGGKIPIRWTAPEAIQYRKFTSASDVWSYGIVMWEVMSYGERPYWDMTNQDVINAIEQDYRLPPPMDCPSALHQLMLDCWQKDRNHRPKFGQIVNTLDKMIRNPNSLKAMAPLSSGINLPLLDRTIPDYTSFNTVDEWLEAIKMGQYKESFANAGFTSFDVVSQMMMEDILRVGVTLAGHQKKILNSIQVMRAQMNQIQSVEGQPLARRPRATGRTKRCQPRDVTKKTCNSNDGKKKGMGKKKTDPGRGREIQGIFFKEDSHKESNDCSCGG
EPHB1, sequence (P54762 whole entry, looked up): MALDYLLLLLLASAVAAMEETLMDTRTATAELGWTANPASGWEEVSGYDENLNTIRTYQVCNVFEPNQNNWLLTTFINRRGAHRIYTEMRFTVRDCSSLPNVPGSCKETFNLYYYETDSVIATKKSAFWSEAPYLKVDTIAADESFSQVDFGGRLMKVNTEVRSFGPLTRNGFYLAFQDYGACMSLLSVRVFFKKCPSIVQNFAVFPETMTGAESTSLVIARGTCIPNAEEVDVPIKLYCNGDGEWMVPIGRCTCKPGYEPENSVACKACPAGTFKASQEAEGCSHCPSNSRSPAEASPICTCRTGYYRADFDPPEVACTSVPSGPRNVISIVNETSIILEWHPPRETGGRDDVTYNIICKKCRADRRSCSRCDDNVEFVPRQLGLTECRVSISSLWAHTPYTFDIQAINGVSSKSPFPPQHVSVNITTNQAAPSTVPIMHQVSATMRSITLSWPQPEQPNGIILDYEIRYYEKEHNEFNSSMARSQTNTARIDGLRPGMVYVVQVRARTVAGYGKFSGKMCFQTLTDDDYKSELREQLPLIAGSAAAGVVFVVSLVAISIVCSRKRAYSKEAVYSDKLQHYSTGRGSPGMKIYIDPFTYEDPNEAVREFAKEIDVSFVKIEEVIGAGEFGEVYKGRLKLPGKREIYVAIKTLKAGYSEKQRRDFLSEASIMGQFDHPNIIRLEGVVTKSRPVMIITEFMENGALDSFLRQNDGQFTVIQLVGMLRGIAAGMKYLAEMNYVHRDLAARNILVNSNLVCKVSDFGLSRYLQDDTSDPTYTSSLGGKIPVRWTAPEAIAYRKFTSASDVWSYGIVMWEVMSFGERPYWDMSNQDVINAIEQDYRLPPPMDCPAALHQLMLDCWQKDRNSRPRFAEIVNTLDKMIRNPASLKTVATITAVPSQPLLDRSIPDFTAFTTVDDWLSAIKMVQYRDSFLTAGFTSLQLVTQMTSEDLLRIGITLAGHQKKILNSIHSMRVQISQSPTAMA
Grb2 SH2, sequence (P62993 whole entry, looked up): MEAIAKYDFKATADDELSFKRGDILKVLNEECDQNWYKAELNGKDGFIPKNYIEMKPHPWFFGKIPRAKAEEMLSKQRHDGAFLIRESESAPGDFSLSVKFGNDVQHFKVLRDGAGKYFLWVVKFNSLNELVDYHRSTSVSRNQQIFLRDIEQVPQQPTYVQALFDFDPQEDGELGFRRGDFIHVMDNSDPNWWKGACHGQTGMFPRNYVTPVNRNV
FGFR1, sequence (P11362 whole entry, looked up): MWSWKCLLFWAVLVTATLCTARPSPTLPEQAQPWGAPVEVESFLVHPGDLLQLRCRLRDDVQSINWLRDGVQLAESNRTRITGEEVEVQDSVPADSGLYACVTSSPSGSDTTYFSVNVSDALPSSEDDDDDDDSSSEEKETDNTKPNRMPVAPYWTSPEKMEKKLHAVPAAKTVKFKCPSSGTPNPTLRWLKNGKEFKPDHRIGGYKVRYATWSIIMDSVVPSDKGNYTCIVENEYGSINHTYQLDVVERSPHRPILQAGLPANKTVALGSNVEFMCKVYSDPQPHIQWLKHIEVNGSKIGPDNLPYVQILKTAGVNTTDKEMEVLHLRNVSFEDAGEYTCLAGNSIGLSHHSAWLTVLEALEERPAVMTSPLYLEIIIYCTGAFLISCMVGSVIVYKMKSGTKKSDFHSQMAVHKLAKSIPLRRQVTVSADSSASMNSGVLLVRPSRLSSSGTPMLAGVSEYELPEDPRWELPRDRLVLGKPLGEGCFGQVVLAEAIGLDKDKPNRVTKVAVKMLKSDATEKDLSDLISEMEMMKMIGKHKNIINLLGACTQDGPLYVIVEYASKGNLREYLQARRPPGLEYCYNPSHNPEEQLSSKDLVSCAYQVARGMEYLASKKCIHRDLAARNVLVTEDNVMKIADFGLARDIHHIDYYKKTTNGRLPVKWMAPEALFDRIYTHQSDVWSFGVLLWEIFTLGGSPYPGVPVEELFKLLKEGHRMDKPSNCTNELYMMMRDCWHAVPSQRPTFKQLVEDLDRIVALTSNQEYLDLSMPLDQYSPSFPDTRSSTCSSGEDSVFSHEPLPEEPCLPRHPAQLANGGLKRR
FGFR3, sequence (P22607 whole entry, looked up): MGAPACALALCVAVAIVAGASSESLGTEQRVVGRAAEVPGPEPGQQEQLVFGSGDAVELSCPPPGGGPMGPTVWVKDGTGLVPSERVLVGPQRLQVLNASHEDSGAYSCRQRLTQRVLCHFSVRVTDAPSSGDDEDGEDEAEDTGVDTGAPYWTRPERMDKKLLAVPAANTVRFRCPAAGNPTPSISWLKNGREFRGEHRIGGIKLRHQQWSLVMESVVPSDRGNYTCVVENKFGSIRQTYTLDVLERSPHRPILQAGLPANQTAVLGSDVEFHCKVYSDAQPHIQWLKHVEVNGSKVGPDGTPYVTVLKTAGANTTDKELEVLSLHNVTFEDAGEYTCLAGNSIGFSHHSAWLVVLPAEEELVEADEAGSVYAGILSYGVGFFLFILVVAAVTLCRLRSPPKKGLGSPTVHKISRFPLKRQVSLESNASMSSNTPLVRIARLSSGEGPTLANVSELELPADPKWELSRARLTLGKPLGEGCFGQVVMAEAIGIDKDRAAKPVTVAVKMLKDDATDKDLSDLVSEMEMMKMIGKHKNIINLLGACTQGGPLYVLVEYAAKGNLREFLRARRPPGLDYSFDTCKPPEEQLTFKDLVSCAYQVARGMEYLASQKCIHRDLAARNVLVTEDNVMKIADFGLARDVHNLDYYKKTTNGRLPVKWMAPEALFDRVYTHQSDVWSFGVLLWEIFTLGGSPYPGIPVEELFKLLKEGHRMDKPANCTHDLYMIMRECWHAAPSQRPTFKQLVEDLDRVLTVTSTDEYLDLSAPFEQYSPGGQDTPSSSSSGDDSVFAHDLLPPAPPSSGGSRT
Fyn, sequence (P06241 whole entry, looked up): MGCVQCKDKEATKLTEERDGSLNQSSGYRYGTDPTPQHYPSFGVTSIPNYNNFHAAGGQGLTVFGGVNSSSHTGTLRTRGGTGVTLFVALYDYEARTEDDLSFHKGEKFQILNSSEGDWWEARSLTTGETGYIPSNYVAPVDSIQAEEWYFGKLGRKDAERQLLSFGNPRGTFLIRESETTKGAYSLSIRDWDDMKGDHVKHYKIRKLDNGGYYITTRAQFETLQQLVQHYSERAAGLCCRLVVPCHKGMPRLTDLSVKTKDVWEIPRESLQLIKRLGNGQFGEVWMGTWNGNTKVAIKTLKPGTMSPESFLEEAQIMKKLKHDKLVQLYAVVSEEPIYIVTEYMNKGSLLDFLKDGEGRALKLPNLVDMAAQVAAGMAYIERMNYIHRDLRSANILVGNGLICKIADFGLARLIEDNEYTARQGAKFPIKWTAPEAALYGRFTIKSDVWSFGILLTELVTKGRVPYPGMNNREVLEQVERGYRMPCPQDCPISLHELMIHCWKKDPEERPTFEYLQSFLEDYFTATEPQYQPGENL

With SVQVDYMKTIL [GLYATL2_Y127] the phosphorylation enrichment [1] was 0.908, the phosphorylation enrichment [2] was 0.527 and the phosphorylation enrichment [3] was 0.611. The phosphorylation enrichment [4] was 0.505, the phosphorylation enrichment [5] was 0.643 and the phosphorylation enrichment [6] was 0.644. It also gave a phosphorylation enrichment [7] of 0.776, a phosphorylation enrichment [8] of 0.407 and a phosphorylation enrichment [9] of 0.517. For the same sequence, the phosphorylation enrichment [10] was 0.791, the phosphorylation enrichment [11] was 0.428 and the phosphorylation enrichment [12] was 0.642. It also gave a phosphorylation enrichment [13] of 0.446, an SH2 binding enrichment [14] of 0.772 and an SH2 binding enrichment [15] of 0.656. The SH2 binding enrichment [16] was 0.517.

DFCDLYGGEKF [PTPN11_Y66_Y63C_YF] gave a phosphorylation enrichment [1] of 1.03, a phosphorylation enrichment [2] of 0.511 and a phosphorylation enrichment [3] of 0.564. It also gave a phosphorylation enrichment [4] of 0.575, a phosphorylation enrichment [5] of 0.832 and a phosphorylation enrichment [6] of 0.672. The phosphorylation enrichment [7] was 1.33, the phosphorylation enrichment [8] was 1.35 and the phosphorylation enrichment [9] was 1.76. The phosphorylation enrichment [10] was 0.908, the phosphorylation enrichment [11] was 0.54 and the phosphorylation enrichment [12] was 0.833. For the same sequence, the phosphorylation enrichment [13] was 2.78, the SH2 binding enrichment [14] was 1.02 and the SH2 binding enrichment [15] was 0.75. The SH2 binding enrichment [16] was 0.706.

MFCAGYDTKQE [F10_Y407] gave a phosphorylation enrichment [1] of 1.11, a phosphorylation enrichment [2] of 0.81 and a phosphorylation enrichment [3] of 0.805. For the same sequence, the phosphorylation enrichment [4] was 0.518, the phosphorylation enrichment [5] was 0.877 and the phosphorylation enrichment [6] was 0.652. It also gave a phosphorylation enrichment [7] of 1.47, a phosphorylation enrichment [8] of 0.539 and a phosphorylation enrichment [9] of 0.632. The phosphorylation enrichment [10] was 1.38, the phosphorylation enrichment [11] was 0.48 and the phosphorylation enrichment [12] was 0.793. It also gave a phosphorylation enrichment [13] of 0.584, an SH2 binding enrichment [14] of 0.65 and an SH2 binding enrichment [15] of 0.727. For the same sequence, the SH2 binding enrichment [16] was 0.495.

NTYEKYLEEEY [TF_Y669_G671E] was tested, and the phosphorylation enrichment [1] was 1.6, the phosphorylation enrichment [2] was 0.802 and the phosphorylation enrichment [3] was 0.686. For the same sequence, the phosphorylation enrichment [4] was 0.553, the phosphorylation enrichment [5] was 0.86 and the phosphorylation enrichment [6] was 0.563. It also gave a phosphorylation enrichment [7] of 1.93, a phosphorylation enrichment [8] of 0.535 and a phosphorylation enrichment [9] of 0.608. It also gave a phosphorylation enrichment [10] of 1.6, a phosphorylation enrichment [11] of 0.563 and a phosphorylation enrichment [12] of 1.27. For the same sequence, the phosphorylation enrichment [13] was 0.9, the SH2 binding enrichment [14] was 0.743 and the SH2 binding enrichment [15] was 0.607. For the same sequence, the SH2 binding enrichment [16] was 2.16.

KEDPEYKKKFR [FAM161A_Y278_E273K] gave a phosphorylation enrichment [1] of 0.749, a phosphorylation enrichment [2] of 0.499 and a phosphorylation enrichment [3] of 0.589. It also gave a phosphorylation enrichment [4] of 0.534, a phosphorylation enrichment [5] of 0.6 and a phosphorylation enrichment [6] of 0.455. For the same sequence, the phosphorylation enrichment [7] was 1.07, the phosphorylation enrichment [8] was 0.34 and the phosphorylation enrichment [9] was 0.477. For the same sequence, the phosphorylation enrichment [10] was 1.02, the phosphorylation enrichment [11] was 0.433 and the phosphorylation enrichment [12] was 0.824. For the same sequence, the phosphorylation enrichment [13] was 0.502, the SH2 binding enrichment [14] was 0.921 and the SH2 binding enrichment [15] was 0.873. The SH2 binding enrichment [16] was 0.513.

EFLKNYFTDKA [DSG2_Y775_R773K] was tested, and the phosphorylation enrichment [1] was 0.847, the phosphorylation enrichment [2] was 0.527 and the phosphorylation enrichment [3] was 0.63. For the same sequence, the phosphorylation enrichment [4] was 0.555, the phosphorylation enrichment [5] was 0.493 and the phosphorylation enrichment [6] was 0.361. For the same sequence, the phosphorylation enrichment [7] was 0.827, the phosphorylation enrichment [8] was 0.581 and the phosphorylation enrichment [9] was 0.556. The phosphorylation enrichment [10] was 0.808, the phosphorylation enrichment [11] was 0.531 and the phosphorylation enrichment [12] was 0.573. For the same sequence, the phosphorylation enrichment [13] was 0.632, the SH2 binding enrichment [14] was 0.764 and the SH2 binding enrichment [15] was 0.882. The SH2 binding enrichment [16] was 0.365.

Sequence AVVEPYNSLLT [TUBA1A_Y185_I188L] has a phosphorylation enrichment [1] of 0.888, a phosphorylation enrichment [2] of 0.574 and a phosphorylation enrichment [3] of 0.618. The phosphorylation enrichment [4] was 0.399, the phosphorylation enrichment [5] was 0.54 and the phosphorylation enrichment [6] was 0.394. The phosphorylation enrichment [7] was 0.891, the phosphorylation enrichment [8] was 0.426 and the phosphorylation enrichment [9] was 0.427. It also gave a phosphorylation enrichment [10] of 1.19, a phosphorylation enrichment [11] of 0.454 and a phosphorylation enrichment [12] of 0.579. It also gave a phosphorylation enrichment [13] of 0.463, an SH2 binding enrichment [14] of 0.786 and an SH2 binding enrichment [15] of 0.648. The SH2 binding enrichment [16] was 1.31.

With EEHIPYTHMNG [INSR_Y1361] the phosphorylation enrichment [1] was 0.797, the phosphorylation enrichment [2] was 0.54 and the phosphorylation enrichment [3] was 0.517. It also gave a phosphorylation enrichment [4] of 0.497, a phosphorylation enrichment [5] of 0.598 and a phosphorylation enrichment [6] of 0.452. The phosphorylation enrichment [7] was 0.85, the phosphorylation enrichment [8] was 0.451 and the phosphorylation enrichment [9] was 0.51. The phosphorylation enrichment [10] was 0.668, the phosphorylation enrichment [11] was 0.403 and the phosphorylation enrichment [12] was 0.555. For the same sequence, the phosphorylation enrichment [13] was 0.371, the SH2 binding enrichment [14] was 0.754 and the SH2 binding enrichment [15] was 0.807. The SH2 binding enrichment [16] was 0.722.

For GFKVRYATGSI [FGFR1_Y210_W213G_YF], the phosphorylation enrichment [1] was 0.628, the phosphorylation enrichment [2] was 0.473 and the phosphorylation enrichment [3] was 0.404. It also gave a phosphorylation enrichment [4] of 0.516, a phosphorylation enrichment [5] of 0.471 and a phosphorylation enrichment [6] of 0.362. For the same sequence, the phosphorylation enrichment [7] was 0.689, the phosphorylation enrichment [8] was 0.417 and the phosphorylation enrichment [9] was 0.44. It also gave a phosphorylation enrichment [10] of 0.651, a phosphorylation enrichment [11] of 0.455 and a phosphorylation enrichment [12] of 0.541. For the same sequence, the phosphorylation enrichment [13] was 0.343, the SH2 binding enrichment [14] was 1.28 and the SH2 binding enrichment [15] was 1. The SH2 binding enrichment [16] was 0.706.

Sequence QNTGDYYDLYG [PTPN11_Y62] has a phosphorylation enrichment [1] of 5.36, a phosphorylation enrichment [2] of 16.7 and a phosphorylation enrichment [3] of 17.8. The phosphorylation enrichment [4] was 17.1, the phosphorylation enrichment [5] was 16.1 and the phosphorylation enrichment [6] was 1.31. For the same sequence, the phosphorylation enrichment [7] was 1.29, the phosphorylation enrichment [8] was 5.48 and the phosphorylation enrichment [9] was 4.7. For the same sequence, the phosphorylation enrichment [10] was 5.11, the phosphorylation enrichment [11] was 4.37 and the phosphorylation enrichment [12] was 1.1. The phosphorylation enrichment [13] was 5.07, the SH2 binding enrichment [14] was 0.911 and the SH2 binding enrichment [15] was 0.725. It also gave an SH2 binding enrichment [16] of 0.849.

In the case of CEETFYTMKMN [MASP2_Y401_V405M], the phosphorylation enrichment [1] is reported as 1.99, the phosphorylation enrichment [2] is reported as 0.939 and the phosphorylation enrichment [3] is reported as 0.894. It also gave a phosphorylation enrichment [4] of 0.666, a phosphorylation enrichment [5] of 1.11 and a phosphorylation enrichment [6] of 0.935. For the same sequence, the phosphorylation enrichment [7] was 1.87, the phosphorylation enrichment [8] was 1.59 and the phosphorylation enrichment [9] was 1.09. For the same sequence, the phosphorylation enrichment [10] was 1.83, the phosphorylation enrichment [11] was 0.829 and the phosphorylation enrichment [12] was 1.3. It also gave a phosphorylation enrichment [13] of 2.6, an SH2 binding enrichment [14] of 0.771 and an SH2 binding enrichment [15] of 0.657. The SH2 binding enrichment [16] was 0.575.

For RYFTTYDTNGR [CLCA1_Y665], the phosphorylation enrichment [1] was 0.657, the phosphorylation enrichment [2] was 0.672 and the phosphorylation enrichment [3] was 0.698. The phosphorylation enrichment [4] was 0.709, the phosphorylation enrichment [5] was 0.598 and the phosphorylation enrichment [6] was 0.471. The phosphorylation enrichment [7] was 0.746, the phosphorylation enrichment [8] was 0.693 and the phosphorylation enrichment [9] was 0.943. The phosphorylation enrichment [10] was 0.742, the phosphorylation enrichment [11] was 0.557 and the phosphorylation enrichment [12] was 0.296. For the same sequence, the phosphorylation enrichment [13] was 0.774, the SH2 binding enrichment [14] was 0.777 and the SH2 binding enrichment [15] was 1.24. For the same sequence, the SH2 binding enrichment [16] was 0.556.

With SDYSSYARTSI [TERT_Y949] the phosphorylation enrichment [1] was 0.792, the phosphorylation enrichment [2] was 1.63 and the phosphorylation enrichment [3] was 2.84. The phosphorylation enrichment [4] was 0.553, the phosphorylation enrichment [5] was 0.7 and the phosphorylation enrichment [6] was 0.542. The phosphorylation enrichment [7] was 0.558, the phosphorylation enrichment [8] was 0.845 and the phosphorylation enrichment [9] was 0.862. The phosphorylation enrichment [10] was 0.725, the phosphorylation enrichment [11] was 0.52 and the phosphorylation enrichment [12] was 0.639. It also gave a phosphorylation enrichment [13] of 0.897, an SH2 binding enrichment [14] of 0.725 and an SH2 binding enrichment [15] of 0.637. The SH2 binding enrichment [16] was 0.535.

Sequence TEQMAYCPIQC [SHC4_Y403] has a phosphorylation enrichment [1] of 1.17, a phosphorylation enrichment [2] of 0.434 and a phosphorylation enrichment [3] of 0.676. It also gave a phosphorylation enrichment [4] of 0.609, a phosphorylation enrichment [5] of 0.737 and a phosphorylation enrichment [6] of 1.14. It also gave a phosphorylation enrichment [7] of 1.02, a phosphorylation enrichment [8] of 0.421 and a phosphorylation enrichment [9] of 0.949. For the same sequence, the phosphorylation enrichment [10] was 1.26, the phosphorylation enrichment [11] was 0.678 and the phosphorylation enrichment [12] was 0.754. For the same sequence, the phosphorylation enrichment [13] was 0.949, the SH2 binding enrichment [14] was 0.793 and the SH2 binding enrichment [15] was 0.643. The SH2 binding enrichment [16] was 0.777.

LFSDHYSPSGR [TMPRSS12_Y23_YF] gave a phosphorylation enrichment [1] of 0.654, a phosphorylation enrichment [2] of 0.545 and a phosphorylation enrichment [3] of 0.452. For the same sequence, the phosphorylation enrichment [4] was 0.446, the phosphorylation enrichment [5] was 0.459 and the phosphorylation enrichment [6] was 0.351. For the same sequence, the phosphorylation enrichment [7] was 0.574, the phosphorylation enrichment [8] was 0.39 and the phosphorylation enrichment [9] was 0.455. It also gave a phosphorylation enrichment [10] of 0.473, a phosphorylation enrichment [11] of 0.382 and a phosphorylation enrichment [12] of 0.331. It also gave a phosphorylation enrichment [13] of 0.363, an SH2 binding enrichment [14] of 0.989 and an SH2 binding enrichment [15] of 0.842. For the same sequence, the SH2 binding enrichment [16] was 0.554.

SVVVPYESPEV [TP53_Y220_P222S] was tested, and the phosphorylation enrichment [1] was 1.36, the phosphorylation enrichment [2] was 0.57 and the phosphorylation enrichment [3] was 0.609. The phosphorylation enrichment [4] was 0.561, the phosphorylation enrichment [5] was 0.647 and the phosphorylation enrichment [6] was 0.488. The phosphorylation enrichment [7] was 1.13, the phosphorylation enrichment [8] was 0.578 and the phosphorylation enrichment [9] was 0.566. The phosphorylation enrichment [10] was 0.867, the phosphorylation enrichment [11] was 0.463 and the phosphorylation enrichment [12] was 0.73. It also gave a phosphorylation enrichment [13] of 0.509, an SH2 binding enrichment [14] of 0.972 and an SH2 binding enrichment [15] of 0.689. It also gave an SH2 binding enrichment [16] of 1.66.
